Measured values as given in the supplement of paper PMC10724198.
± gives the standard deviation of the averaged measurements.

Columns and labels:
Saccharomyces cerevisiae [1] = assay: protein stability index of tFT-peptide fusion (C-terminal peptide) (PSI (0-1 scale)); higher = more stable (slower turnover); conditions: genetic background: wild type; temperature: 30 C
Saccharomyces cerevisiae [2] = assay: as above
Description: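 MPS profiling in S. cerevisiae of the tFT-X12 degron library: putative degron peptides plus stable controls, 12 aa, fused to the C-terminus of a sfGFP-mCherry timer. Cells are FACS-sorted into 8 mCherry/sfGFP bins and deep-sequenced. PSI runs from 0 (unstable) to 1 (stable). Backgrounds are wild type, das1Δ and doa10Δ at 30 °C, and wild type, das1Δ, cdc34-1 and cdc53-1 at 37 °C; 2-3 technical replicates each.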

[3] = genetic background: cdc34-1, temperature: 37 C
[4] = genetic background: cdc53-1, temperature: 37 C
[5] = genetic background: das1 deletion, temperature: 30 C
[6] = genetic background: das1 deletion, temperature: 37 C
[7] = genetic background: doa10 deletion, temperature: 30 C
[8] = genetic background: wild type, temperature: 30 C
[9] = genetic background: wild type, temperature: 37 C
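Further: PSI is a weighted mean of sequencing reads over stability bins, variants kept only with over 10 reads, mCherry proximal and sfGFP distal, peptide attached via GGGS linker.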

| Sequence | protein stability index (Saccharomyces cerevisiae [1]) | protein stability index (Saccharomyces cerevisiae [2]; [3]) | protein stability index (Saccharomyces cerevisiae [2]; [4]) | protein stability index (Saccharomyces cerevisiae [2]; [5]) | protein stability index (Saccharomyces cerevisiae [2]; [6]) | protein stability index (Saccharomyces cerevisiae [2]; [7]) | protein stability index (Saccharomyces cerevisiae [2]; [8]) | protein stability index (Saccharomyces cerevisiae [2]; [9]) |
| --- | --- | --- | --- | --- | --- | --- | --- | --- |
| FGGYLRAGVFLT | 0.473 ± 0.11 | 0.643 ± 0.032 | 0.6969 ± 0.0015 | 0.645 ± 0.027 | 0.721 ± 0.0034 | 0.388 ± 0.039 | 0.387 ± 0.043 | 0.586 ± 0.016 |
| NTNITHHSVKLR | 0.727 ± 0.034 | 0.671 ± 0.017 | 0.7346 ± 0.0071 | 0.64 ± 0.026 | 0.712 ± 0.044 | 0.644 ± 0.024 | 0.662 ± 0.038 | 0.689 ± 0.036 |
| PPPAPPLSMPAP | 0.0173 ± 0.0038 | 0.647 ± 0.064 | 0.73 ± 0.027 | 0.665 ± 0.014 | 0.718 ± 0.026 | 0.671 ± 0.021 | 0.681 ± 0.022 | 0.6928 ± 0.0055 |
| FLPSLSLPLLLF | 0.4318 ± 0.0012 | 0.555 ± 0.0068 | 0.549 ± 0.02 | 0.425 ± 0.035 | 0.573 ± 0.015 | 0.376 ± 0.036 | 0.346 ± 0.017 | 0.479 ± 0.018 |
| LLPTSVFLPSLF | 0.489 ± 0.0069 | 0.6907 ± 0.0038 | 0.7726 ± 0.0059 | 0.663 ± 0.012 | 0.768 ± 0.014 | 0.282 ± 0.0082 | 0.331 ± 0.021 | 0.578 ± 0.018 |
| VRFLLSLCCALL | 0.4914 ± 0.0025 | 0.588 ± 0.03 | 0.671 ± 0.018 | 0.548 ± 0.033 | 0.624 ± 0.042 | 0.5436 ± 0.0034 | 0.518 ± 0.021 | 0.596 ± 0.032 |
| VLILFFLVVFYV | 0.262 ± 0.037 | 0.217 ± 0.015 | 0.294 ± 0.0088 | 0.267 ± 0.033 | 0.347 ± 0.018 | 0.2543 ± 0.0024 | 0.237 ± 0.021 | 0.3358 ± 0.0033 |
| TSFSSGEALGVG | 0.483 ± 0.01 | 0.437 ± 0.0066 | 0.503 ± 0.021 | 0.442 ± 0.0075 | 0.5 ± 0.0091 | 0.4553 ± 0.0011 | 0.445 ± 0.013 | 0.48763 ± 3.8e-05 |
| TNEWMDVKVFCY | 0.491 ± 0.088 | 0.668 ± 0.0073 | 0.701 ± 0.052 | 0.499 ± 0.049 | 0.676 ± 0.0097 | 0.449 ± 0.028 | 0.486 ± 0.04 | 0.6398 ± 0.0051 |
| SWGEQDRLTGYI | 0.7195 ± 0.0031 | 0.715 ± 0.029 | 0.77 ± 0.02 | 0.689 ± 0.024 | 0.787 ± 0.0083 | 0.669 ± 0.018 | 0.674 ± 0.026 | 0.712 ± 0.023 |
| PTYSCSIKIQAH | 0.427 ± 0.031 | 0.539 ± 0.037 | 0.537 ± 0.037 | 0.407 ± 0.03 | 0.5503 ± 0.0049 | 0.339 ± 0.01 | 0.366 ± 0.022 | 0.517 ± 0.02 |
| WSWCLDVVCFTS | 0.471 ± 0.0059 | 0.498 ± 0.036 | 0.547 ± 0.027 | 0.45 ± 0.021 | 0.563 ± 0.019 | 0.446 ± 0.011 | 0.439 ± 0.011 | 0.531 ± 0.024 |
| VPIIVVVYVFVT | 0.203 ± 0.085 | 0.13 ± 0.022 | 0.247 ± 0.11 | 0.157 ± 0.03 | 0.306 ± 0.024 | 0.105 ± 0.025 | 0.134 ± 0.038 | 0.258 ± 0.0081 |
| SCFDRQIFVPVC | 0.442 ± 0.013 | 0.358 ± 0.0078 | 0.3925 ± 0.001 | 0.302 ± 0.033 | 0.461 ± 0.013 | 0.274 ± 0.0059 | 0.308 ± 0.032 | 0.4173 ± 0.0038 |
| FCCFFVHMSFFL | 0.483 ± 0.12 | 0.26 ± 0.0087 | 0.424 ± 0.024 | 0.298 ± 0.026 | 0.45 ± 0.0054 | 0.2646 ± 0.00099 | 0.282 ± 0.012 | 0.427 ± 0.025 |
| RWTKMNNLIIEF | 0.7466 ± 0.0064 | 0.693 ± 0.0083 | 0.744 ± 0.0087 | 0.667 ± 0.013 | 0.742 ± 0.042 | 0.678 ± 0.012 | 0.648 ± 0.025 | 0.699 ± 0.026 |
| WCGLFCRSVFVV | 0.158 ± 0.072 | 0.28221 ± 0.00025 | 0.363 ± 0.0043 | 0.263 ± 0.033 | 0.406 ± 0.0015 | 0.0996 ± 0.0021 | 0.11 ± 0.023 | 0.108 ± 0.0023 |

| Sequence | protein stability index (Saccharomyces cerevisiae [1]) | protein stability index (Saccharomyces cerevisiae [2]; [3]) | protein stability index (Saccharomyces cerevisiae [2]; [4]) | protein stability index (Saccharomyces cerevisiae [2]; [5]) | protein stability index (Saccharomyces cerevisiae [2]; [6]) | protein stability index (Saccharomyces cerevisiae [2]; [7]) | protein stability index (Saccharomyces cerevisiae [2]; [8]) | protein stability index (Saccharomyces cerevisiae [2]; [9]) |
| --- | --- | --- | --- | --- | --- | --- | --- | --- |
| PWGSHLYYVVCI | 0.339 ± 0.023 | 0.168 ± 0.026 | 0.228 ± 0.011 | 0.238 ± 0.03 | 0.3371 ± 0.0028 | 0.183 ± 0.013 | 0.221 ± 0.035 | 0.315 ± 0.016 |
| KRARVIWKLVVV | 0.445 ± 0.0046 | 0.59 ± 0.033 | 0.528 ± 0.008 | 0.408 ± 0.024 | 0.583 ± 0.006 | 0.23 ± 0.01 | 0.287 ± 0.015 | 0.4876 ± 0.0039 |
| INKKKKMIITKI | 0.427 ± 0.019 | 0.617 ± 0.11 | 0.726 ± 0.011 | 0.662 ± 0.073 | 0.742 ± 0.063 | 0.227 ± 0.0025 | 0.253 ± 0.043 | 0.479 ± 0.015 |
| VTRLLLSRIDCY | 0.445 ± 0.11 | 0.437 ± 0.018 | 0.445 ± 0.0057 | 0.376 ± 0.028 | 0.501 ± 0.016 | 0.346 ± 0.011 | 0.367 ± 0.025 | 0.468 ± 0.022 |
| CWYVCSFWPYVV | 0.174 ± 0.013 | 0.366 ± 0.061 | 0.6476 ± 0.0021 | 0.548 ± 0.022 | 0.69 ± 0.0077 | 0.0885 ± 0.0085 | 0.089 ± 0.027 | 0.0762 ± 0.016 |
| LGSYIFVVVIYF | 0.283 ± 0.15 | 0.152 ± 0.011 | 0.228 ± 0.0032 | 0.168 ± 0.032 | 0.291 ± 0.0044 | 0.141 ± 0.0079 | 0.143 ± 0.033 | 0.253 ± 0.0056 |
| FYLSFWFLIFFF | 0.312 ± 0.0092 | 0.227 ± 0.011 | 0.251 ± 0.023 | 0.273 ± 0.031 | 0.353 ± 0.029 | 0.325 ± 0.036 | 0.215 ± 0.036 | 0.315 ± 0.017 |
| WYYTWKQLVMIV | 0.0294 ± 0.022 | 0.0845 ± 0.01 | 0.148 ± 0.0062 | 0.106 ± 0.023 | 0.186 ± 0.0072 | 0.0276 ± 0.0037 | 0.0263 ± 0.0054 | 0.0433 ± 0.021 |
| VYDVSVGVAVVG | 0.4567 ± 0.002 | 0.44 ± 0.018 | 0.464 ± 0.041 | 0.34 ± 0.037 | 0.5196 ± 0.0031 | 0.291 ± 0.017 | 0.346 ± 0.025 | 0.48822 ± 0.00017 |
| YRNVLLVLNYWS | 0.491 ± 0.0064 | 0.447 ± 0.076 | 0.368 ± 0.029 | 0.428 ± 0.031 | 0.544 ± 0.0087 | 0.518 ± 0.0072 | 0.406 ± 0.022 | 0.51 ± 0.026 |
| QHRAIKIEIKIN | 0.091 ± 0.0089 | 0.439 ± 0.024 | 0.666 ± 0.018 | 0.571 ± 0.048 | 0.672 ± 0.02 | 0.0613 ± 0.035 | 0.0582 ± 0.013 | 0.0578 ± 0.011 |
| RSFNVGLELLVW | 0.398 ± 0.0062 | 0.382 ± 0.026 | 0.395 ± 0.035 | 0.295 ± 0.05 | 0.449 ± 0.0063 | 0.259 ± 0.0039 | 0.297 ± 0.046 | 0.4159 ± 0.001 |
| VTMTPSLCFSYS | 0.464 ± 0.018 | 0.688 ± 0.017 | 0.684 ± 0.023 | 0.388 ± 0.029 | 0.668 ± 0.013 | 0.364 ± 0.0098 | 0.396 ± 0.01 | 0.632 ± 0.016 |
| KRMVEKNKKKIN | 0.31 ± 0.036 | 0.57 ± 0.063 | 0.747 ± 0.087 | 0.613 ± 0.029 | 0.729 ± 0.024 | 0.153 ± 0.024 | 0.201 ± 0.037 | 0.368 ± 0.012 |
| KSSIGVWTLLIR | 0.494 ± 0.016 | 0.282 ± 0.012 | 0.3 ± 0.026 | 0.337 ± 0.026 | 0.454 ± 0.022 | 0.564 ± 0.02 | 0.334 ± 0.035 | 0.423 ± 0.022 |
| CFVRCFVSIRLF | 0.133 ± 0.034 | 0.109 ± 0.041 | 0.167 ± 0.0043 | 0.163 ± 0.019 | 0.3093 ± 0.0021 | 0.0737 ± 0.012 | 0.0716 ± 0.026 | 0.146 ± 0.015 |
